{"source": "patent US20230364000A1", "about": "“COMPOSITIONS COMPRISING COMBINATIONS OF COLLAGEN OR ELASTIN POLYPEPTIDES WITH ACTIVE INGREDIENTS AND METHODS OF USING SAME” (Geltor, Inc., priority 2020, published 2023)", "molecules": {"B1": {"name": "SEQ ID NO: 16: truncated human collagen type 21 alpha 1 without the DsbA secretion tag, recombinantly expressed in E. coli (protein)", "chain": "AGFPGLPGPAGEPGRHGKDGLMGSPGFKGEAGSPGAPGQDGTRGEPGIPGFPGNRGLMGQKGEIGPPGQQGKKGAPGMPGLMGSNGSPGQPGTPGSKGSKGEPGIQGMPGASGLKGEPGATGSPGEPGYMGLPGIQGKKGDKGNQGEKGIQGQKGENGRQGIPGQQGIQGHHGAKGERGEKGEPGVR"}}, "key": {"[1]": {"test_system": "human primary keratinocytes", "experiment": "IL-la ELISA in UVB-irradiated keratinocytes", "assay_type": "cell-based", "conditions": "40 mJ/cm^2 UVB, then 0.1% for 24 hours; compared to untreated UVB-irradiated keratinocytes; FIG. 3", "description": "Human primary keratinocytes were irradiated with 40 mJ/cm^2 UVB light, and then treated with 0.1% of a polypeptide of SEQ ID NO: 16 for 24 hours. Levels of the pro-inflammatory cytokines IL-la were determined by ELISA."}, "[2]": {"test_system": "human primary fibroblasts", "experiment": "Fibroblast collagen type I protein secretion (pro-collagen type I C-peptide ELISA)", "assay_type": "cell-based", "conditions": "0.03%; 48 hours; compared with untreated cells or cells treated with retinol; FIG. 1", "description": "A series of in vitro experiments were conducted to assess the effects of a truncated human type 21 collagen on human skin fibroblasts and keratinocytes. In a first experiment, human primary fibroblasts were evaluated for collagen type I protein secretion. Fibroblasts were cultured with 0.03% of a polypeptide according to SEQ ID NO: 16 for 48 hours. Culture supernatants were analyzed by Enzyme Linked Immunosorbent Assay (ELISA) for pro-collagen type I C-peptide, which is a readout for total secreted collagen type I protein."}, "[3]": {"test_system": "facial skin", "experiment": "Cutometer skin firmness and elasticity, clinical study of Example 3", "assay_type": "in vivo, human", "conditions": "0.1% w/w topical formulation; for Cutometer Elasticity (R5 Ur/Ue) Mean ± SD / Cutometer Firmness (R0 Uf) Mean ± SD / Cutometer Elasticity (R2 Ua/Uf) Mean ± SD: n 14; for Cutometer Elasticity (R5 Ur/Ue) Mean ± SD: baseline 0.28 ± 0.06; for Cutometer Firmness (R0 Uf) Mean ± SD: baseline 0.35 ± 0.06; for Cutometer Elasticity (R2 Ua/Uf) Mean ± SD: baseline 0.64 ± 0.09", "description": "A clinical study using human subjects to determine the effects of a topical skincare product containing truncated human type 21 collagen (SEQ ID NO: 16) is performed. The research is performed according to U.S. and International standards of Good Clinical Practice (FDA and ICH guidelines) and applicable government regulations.\nA base formulation (control formulation) made of water, olive oil glycereth-8 esters, glycerin, coconut alkanes, hydroxyethyl acrylate/sodium acryloyldimethyl taurate copolymer, pentylene glycol, disodium EDTA, caprylyl glycol, chlorphenesin, phenoxyethanol is prepared. A formulation containing the truncated human type 21 collagen is prepared by adding sufficient collagen to prepare a topical formulation containing 0.1% w/w collagen.\nThe Cutometer MPA 580 (Courage+Khazaka, Germany) measures the viscoelastic properties of the skin by applying suction to the skin surface, drawing the skin into the aperture of the probe and determining the penetration depth using an optical measuring system.\nThe Cutometer outputs include many parameters of different portions of the measurement curve including of R0 (Uf, firmness), R2 (Ua/Uf, gross elasticity), R5 (Ur/Ue, net elasticity), R7 (Ur/Uf, elastic portion) and R9 (R3 [last max amp]-R0 [Uf], fatigue).\nAll subjects have Cutometer measurements taken on the left or right cheek (following a prepared randomization code) at baseline, immediately post-initial-application, and at weeks 2, 4, and 8. Skin elasticity is reported using the R5 (Ur/Ue) and R2 (Ua/Uf) parameter. As the skin becomes more elastic, this value will increase. Skin Firmness is reported using the R0 (Uf) parameter. As the skin becomes firmer, this value will decrease. Assessment location is recorded on a face map for each subject for consistency of measurements between visits.\nImprovements in skin hydration, firmness, and elasticity were statistically significant."}, "[4]": {"test_system": "facial skin", "experiment": "SIAscope facial skin collagen content, clinical study of Example 5", "assay_type": "in vivo, human", "conditions": "topical facial serum 0.1%, n=15, FIG. 7", "excerpt": "In a clinical study (n=15 subjects), subjects used a topical facial serum containing 0.1% of a polypeptide of SEQ ID NO: 16 for 8 weeks, after using a protein-free base facial serum for a 1-week washout period. Topical application of a polypeptide of SEQ ID NO: 16 was associated with increased skin collagen content, as measured by a SIAscope."}, "[5]": {"test_system": "facial skin", "experiment": "Facial skin redness, clinical study of Example 5", "assay_type": "in vivo, human", "conditions": "topical facial serum 0.1%, n=15, FIG. 8", "excerpt": "In a clinical study (n=15 subjects), subjects used a topical facial serum containing 0.1% of a polypeptide of SEQ ID NO: 16 for 8 weeks, after using a protein-free base facial serum for a 1-week washout period."}}, "data": [{"molecule": "B1", "values": [{"measurement": "levels of IL-la", "setting": "[1]", "result": "lower levels"}, {"measurement": "secreted collagen type I (pro-collagen type I C-peptide)", "setting": "[2]", "result": "higher levels"}, {"measurement": "Cutometer Elasticity (R2 Ua/Uf) Mean Percent Improvement From BL mean", "setting": "[3]; Immediate", "result": 45.85, "unit": "%"}, {"measurement": "Cutometer Elasticity (R5 Ur/Ue) Mean Percent Improvement From BL mean", "setting": "[3]; Immediate", "result": 44.57, "unit": "%"}, {"measurement": "Cutometer Elasticity (R5 Ur/Ue) Percent of Subjects Showing Improvement From BL", "setting": "[3]; Immediate", "result": 92.9, "unit": "%"}, {"measurement": "Cutometer Firmness (R0 Uf) Mean Percent Improvement From BL mean", "setting": "[3]; Immediate", "result": 30.38, "unit": "%"}, {"measurement": "Cutometer Firmness (R0 Uf) Percent of Subjects Showing Improvement From BL", "setting": "[3]; Immediate", "result": 100, "unit": "%"}, {"measurement": "Cutometer Elasticity (R5 Ur/Ue) Mean ± SD", "setting": "[3]; Immediate, P-value <0.001*", "result": "0.40 ± 0.09"}, {"measurement": "Cutometer Firmness (R0 Uf) Mean ± SD", "setting": "[3]; Immediate, P-value <0.001*, value decreases as skin becomes firmer", "result": "0.24 ± 0.05"}, {"measurement": "Cutometer Elasticity (R2 Ua/Uf) Mean ± SD", "setting": "[3]; Immediate, P-value <0.001*", "result": "0.93 ± 0.13"}, {"measurement": "Cutometer Elasticity (R2 Ua/Uf) Mean Percent Improvement From BL mean", "setting": "[3]; Week 2", "result": 26.93, "unit": "%"}, {"measurement": "Cutometer Elasticity (R5 Ur/Ue) Mean Percent Improvement From BL mean", "setting": "[3]; Week 2", "result": 33.36, "unit": "%"}, {"measurement": "Cutometer Elasticity (R5 Ur/Ue) Percent of Subjects Showing Improvement From BL", "setting": "[3]; Week 2", "result": 92.9, "unit": "%"}, {"measurement": "Cutometer Firmness (R0 Uf) Mean Percent Improvement From BL mean", "setting": "[3]; Week 2", "result": 11.27, "unit": "%"}, {"measurement": "Cutometer Firmness (R0 Uf) Percent of Subjects Showing Improvement From BL", "setting": "[3]; Week 2", "result": 78.6, "unit": "%"}, {"measurement": "Cutometer Elasticity (R5 Ur/Ue) Mean ± SD", "setting": "[3]; Week 2, P-value <0.001*", "result": "0.37 ± 0.08"}, {"measurement": "Cutometer Firmness (R0 Uf) Mean ± SD", "setting": "[3]; Week 2, P-value 0.028*", "result": "0.31 ± 0.07"}, {"measurement": "Cutometer Elasticity (R2 Ua/Uf) Mean ± SD", "setting": "[3]; Week 2, P-value <0.001*", "result": "0.80 ± 0.09"}, {"measurement": "skin collagen content", "setting": "[4]; 2 weeks vs baseline", "result": "increased"}, {"measurement": "skin collagen content", "setting": "[4]; 8 weeks vs baseline", "result": "increased"}, {"measurement": "skin redness", "setting": "[5]; 4 weeks vs baseline", "result": "decrease"}, {"measurement": "skin redness", "setting": "[5]; 8 weeks vs baseline", "result": "decrease"}]}]}
